Sequences and labels used below:
B1: DNA topoisomerase 3-alpha, residues 812 to 851; numbered along this chain, Q13472 (parent)
chain: TCNCGQEAVLLTVRKEGPNRGRQFFKCNGGSCNFFLWADS

± gives the uncertainty stated by the source.

The variants in this data set derive from B1. The experiment in a line: abundance fitness (aPCA) (normalised: wild type 0, dead -1); higher = more abundant; growth selection in yeast, the domain comes from the species named. Particulars: Homo sapiens.
For TCNCGQEAVLLTVEKEGPNRGRQFFKCNGGSCNFFLWADS [R14E], the abundance fitness is 0.001 ± 0.054.

As to TCNCGQEAVLLTVPKEGPNRGRQFFKCNGGSCNFFLWADS [R14P], the abundance fitness was -0.312 ± 0.065.

Turning to TCNCGQRAVLLTVRKEGPNRGRQFFKCNGGSCNFFLWADS [E7R], the abundance fitness is -0.18 ± 0.093.

For the variant TCNCGQGAVLLTVRKEGPNRGRQFFKCNGGSCNFFLWADS [E7G], the abundance fitness was -0.221 ± 0.051.

Regarding TCNCGQEAVLLTVRKEGPNRGRQFFCCNGGSCNFFLWADS [K26C], the abundance fitness was -0.13 ± 0.17.

Consider TCNCGQEAVLLTVRKEGPNRGRQFFMCNGGSCNFFLWADS [K26M], for which the abundance fitness is -0.232 ± 0.12.

As to TCNCGQEAVLLTVRKEGPNRGRQFFGCNGGSCNFFLWADS [K26G], the abundance fitness is -0.004 ± 0.056.

Turning to TCNCGQEAVLLTVRKEGPNRGRQFFVCNGGSCNFFLWADS [K26V], the abundance fitness was -0.266 ± 0.063.

As to TCNCGQEAVLVTVRKEGPNRGRQFFKCNGGSCNFFLWADS [L11V], the abundance fitness was determined as 0.031 ± 0.06.

On to TCNCGQEAVLCTVRKEGPNRGRQFFKCNGGSCNFFLWADS [L11C], for which the abundance fitness is -0.208 ± 0.17.

Turning to TCNCGQEAVLSTVRKEGPNRGRQFFKCNGGSCNFFLWADS [L11S], the abundance fitness stood at 0.008 ± 0.057.

Regarding TCNCGQEAVLTTVRKEGPNRGRQFFKCNGGSCNFFLWADS [L11T], the abundance fitness worked out at 0.027 ± 0.081.

Regarding TCNCGQEAVLLTVRGEGPNRGRQFFKCNGGSCNFFLWADS [K15G], the abundance fitness worked out at 0.318 ± 0.21.

As for TCNCGQEAVLLTVRAEGPNRGRQFFKCNGGSCNFFLWADS [K15A], the abundance fitness was -0.282 ± 0.13.

With TCNCGQEAVLLTVRYEGPNRGRQFFKCNGGSCNFFLWADS [K15Y], the abundance fitness is -0.299 ± 0.099.

With TCNCGQEAVLLTVRWEGPNRGRQFFKCNGGSCNFFLWADS [K15W], the abundance fitness is -0.126 ± 0.19.

With TCNCGQEAVLLTVRTEGPNRGRQFFKCNGGSCNFFLWADS [K15T], the abundance fitness worked out at 0.067 ± 0.045.

TCNCGQEAVLLTVRCEGPNRGRQFFKCNGGSCNFFLWADS [K15C]: the abundance fitness was -0.342 ± 0.064.

TCNCGQEAVLLTVRLEGPNRGRQFFKCNGGSCNFFLWADS [K15L]: the abundance fitness is -0.325 ± 0.059.

Regarding TCNCGQEAVLLTVREEGPNRGRQFFKCNGGSCNFFLWADS [K15E], the abundance fitness worked out at 0.105 ± 0.059.

Regarding TCNCGQEAVLLTVRFEGPNRGRQFFKCNGGSCNFFLWADS [K15F], the abundance fitness was -0.136 ± 0.12.

Regarding TCNCGQEAVLLTVRDEGPNRGRQFFKCNGGSCNFFLWADS [K15D], the abundance fitness came out at 0.06 ± 0.09.

Turning to TCNCGQEAVLLTVRKEGLNRGRQFFKCNGGSCNFFLWADS [P18L], the abundance fitness is -0.352 ± 0.21.

For TCNCGQEAVLLTVRKEGHNRGRQFFKCNGGSCNFFLWADS [P18H], the abundance fitness was -0.353 ± 0.12.

For TCNCGQEAVLLSVRKEGPNRGRQFFKCNGGSCNFFLWADS [T12S], the abundance fitness is -0.475 ± 0.23.

Consider TCNCGQEAVLLYVRKEGPNRGRQFFKCNGGSCNFFLWADS [T12Y], for which the abundance fitness was -0.356 ± 0.18.

Consider TCNCGQEAVLLTVRKEGPNRGRQFFKCNGWSCNFFLWADS [G30W], for which the abundance fitness is -0.287 ± 0.36.

TCNCGQEAVLLTVRKEGPNRGRQFFKCNGASCNFFLWADS [G30A]: the abundance fitness is -0.381 ± 0.2.

As for TCNCGQEAVLLTVRKEGPNRGRQFFKCNGGSCNFFLWVDS [A38V], the abundance fitness was -0.295 ± 0.13.

As to TCNCGQEAVLLTVRKEGPNRGRQFFKCNGGSCNFFVWADS [L36V], the abundance fitness is -0.255 ± 0.09.

Take TCNCGQEAVLLTVRKEGPNRGRQFFKCNGGSCNFFFWADS [L36F]: the abundance fitness was 0.063 ± 0.35.

As to TCNCGQEAVLLTVRKEGPNRGRQFFKCNGGSCNFFAWADS [L36A], the abundance fitness was 0.028 ± 0.045.

Take TCNCGQEAVLLTVRKEGPNRGRQFFKCNGGSCNFFRWADS [L36R]: the abundance fitness was 0.013 ± 0.058.

Turning to TCNCGQEAVLLTVRKEGPNRGRQFFKCNGGSCNFFSWADS [L36S], the abundance fitness came to 0.134 ± 0.17.

As to TCNCGQEAVLLTVRKEGPNRGRQFFKCNGGSCVFFLWADS [N33V], the abundance fitness is -0.7 ± 0.11.

As to TCNCGQEAVLLTVRKEGPNRGRQFFKCNGGSCSFFLWADS [N33S], the abundance fitness is -0.057 ± 0.062.

Take TCNCGQEAVLLTVRKEGPNRGLQFFKCNGGSCNFFLWADS [R22L]: the abundance fitness was -0.322 ± 0.079.

On to TCNCGQEAVLLTVRKEGPNRGTQFFKCNGGSCNFFLWADS [R22T], for which the abundance fitness was -0.438 ± 0.17.

Take TCNCGQEAVLLTVRKEGPNRGNQFFKCNGGSCNFFLWADS [R22N]: the abundance fitness was -0.459 ± 0.36.

TCNCGQEAVLLTVRKEGPNRGGQFFKCNGGSCNFFLWADS [R22G]: the abundance fitness is -0.565 ± 0.081.

Take TCNCGQEAVLLTVRKEGPNRGRQFFKANGGSCNFFLWADS [C27A]: the abundance fitness was -0.44 ± 0.15.

Turning to TCNCGQEAVLLTVRKEGPNRGRQFFKLNGGSCNFFLWADS [C27L], the abundance fitness was -0.984 ± 0.19.

Regarding TCNCGQEAVLLTVRKEGPNRGRQFFKRNGGSCNFFLWADS [C27R], the abundance fitness is -1 ± 0.36.

As for TCNCGQEAVLLTVRKELPNRGRQFFKCNGGSCNFFLWADS [G17L], the abundance fitness is -0.606 ± 0.071.

As for TCNCGQEAVLLTVRKEGPNRGRGFFKCNGGSCNFFLWADS [Q23G], the abundance fitness is -0.21 ± 0.053.

For the variant TCNCGQEAVLLTVRKEGPNRGRDFFKCNGGSCNFFLWADS [Q23D], the abundance fitness came out at 0.021 ± 0.28.

As to TCNCGQEAVLLTVRKEGPNRGRTFFKCNGGSCNFFLWADS [Q23T], the abundance fitness was -0.219 ± 0.19.

Turning to TCNCGQEAVLLTVRKEGPNRGRQFFKCNGGSCNQFLWADS [F34Q], the abundance fitness was -0.44 ± 0.3.

With TCNCGQEAVLLTVRKEGPNRGRQFFKCNGGSCNRFLWADS [F34R], the abundance fitness is -0.374 ± 0.2.

Take TCNCGQEAVLLTVRKVGPNRGRQFFKCNGGSCNFFLWADS [E16V]: the abundance fitness was -0.5 ± 0.34.

For the variant TCNCGQEAVLLTVRKPGPNRGRQFFKCNGGSCNFFLWADS [E16P], the abundance fitness was -0.196 ± 0.15.

As for TCNCGQEAVLLTVRKGGPNRGRQFFKCNGGSCNFFLWADS [E16G], the abundance fitness was -0.266 ± 0.069.

On to TCNCGQEAVLLTVRKAGPNRGRQFFKCNGGSCNFFLWADS [E16A], for which the abundance fitness was -0.185 ± 0.063.

Take TCNCGQEAVLLTVRKRGPNRGRQFFKCNGGSCNFFLWADS [E16R]: the abundance fitness was -0.165 ± 0.079.

Turning to TCNCGQEAVLLTVRKYGPNRGRQFFKCNGGSCNFFLWADS [E16Y], the abundance fitness was -0.421 ± 0.17.

With TCNCGQEAVELTVRKEGPNRGRQFFKCNGGSCNFFLWADS [L10E], the abundance fitness was -0.168 ± 0.11.

With TCNCGQEAVSLTVRKEGPNRGRQFFKCNGGSCNFFLWADS [L10S], the abundance fitness was -0.33 ± 0.078.

For TCNCGQEAVTLTVRKEGPNRGRQFFKCNGGSCNFFLWADS [L10T], the abundance fitness was -0.068 ± 0.47.

As to TCNCGQEAVALTVRKEGPNRGRQFFKCNGGSCNFFLWADS [L10A], the abundance fitness was -0.284 ± 0.087.

For the variant TCDCGQEAVLLTVRKEGPNRGRQFFKCNGGSCNFFLWADS [N3D], the abundance fitness was -0.006 ± 0.068.

As for TCGCGQEAVLLTVRKEGPNRGRQFFKCNGGSCNFFLWADS [N3G], the abundance fitness is -0.739 ± 0.15.

On to TCNCGQEAVLLTVRKEGPNRGRQFFKCNAGSCNFFLWADS [G29A], for which the abundance fitness was determined as 0.121 ± 0.075.

Take TCNCGQEAVLLTVRKEGPNRGRQFFKCNPGSCNFFLWADS [G29P]: the abundance fitness was -0.571 ± 0.36.

(Values after the Human Domainome abundance scans (Beltran et al. 2025).)
